T1: RNA polymerase I subunit A135 (S. cerevisiae, UniProt P22138 1-1203)
T1 sequence: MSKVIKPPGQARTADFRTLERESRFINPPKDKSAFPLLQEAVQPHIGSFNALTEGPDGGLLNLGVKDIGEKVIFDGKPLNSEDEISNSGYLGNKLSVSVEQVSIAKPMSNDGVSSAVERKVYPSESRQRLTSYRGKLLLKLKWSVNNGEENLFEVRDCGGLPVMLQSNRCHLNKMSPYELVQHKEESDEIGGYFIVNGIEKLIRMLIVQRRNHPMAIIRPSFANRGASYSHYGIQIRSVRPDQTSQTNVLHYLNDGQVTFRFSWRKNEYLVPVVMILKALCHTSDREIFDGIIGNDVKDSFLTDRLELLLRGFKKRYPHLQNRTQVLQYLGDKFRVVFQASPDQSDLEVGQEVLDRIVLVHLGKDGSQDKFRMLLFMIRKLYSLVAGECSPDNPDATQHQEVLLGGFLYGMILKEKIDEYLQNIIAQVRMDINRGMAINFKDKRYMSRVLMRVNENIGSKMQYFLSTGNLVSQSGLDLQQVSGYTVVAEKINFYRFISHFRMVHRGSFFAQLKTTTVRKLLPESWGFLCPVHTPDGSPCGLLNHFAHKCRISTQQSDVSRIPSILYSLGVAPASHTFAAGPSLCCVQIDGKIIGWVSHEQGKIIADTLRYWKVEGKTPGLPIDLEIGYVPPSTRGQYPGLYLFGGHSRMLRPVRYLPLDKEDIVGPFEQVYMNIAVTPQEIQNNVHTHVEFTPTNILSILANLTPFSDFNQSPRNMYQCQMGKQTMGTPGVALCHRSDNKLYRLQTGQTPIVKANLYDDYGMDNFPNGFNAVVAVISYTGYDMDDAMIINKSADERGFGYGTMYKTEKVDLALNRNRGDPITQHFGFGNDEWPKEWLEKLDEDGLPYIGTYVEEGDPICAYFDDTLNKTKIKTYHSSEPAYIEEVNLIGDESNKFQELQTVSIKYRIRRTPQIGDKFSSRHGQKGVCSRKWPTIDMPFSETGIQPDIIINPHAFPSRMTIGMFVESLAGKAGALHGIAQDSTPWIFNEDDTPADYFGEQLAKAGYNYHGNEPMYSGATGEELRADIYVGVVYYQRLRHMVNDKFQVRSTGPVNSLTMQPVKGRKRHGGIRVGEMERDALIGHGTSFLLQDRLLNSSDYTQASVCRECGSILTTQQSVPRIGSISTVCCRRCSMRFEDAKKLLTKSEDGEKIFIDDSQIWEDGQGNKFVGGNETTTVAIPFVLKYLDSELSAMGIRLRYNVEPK


Molecular target: T1, RNA polymerase I subunit A135
Test: cryo-EM structure

| binding result | Binder |
| --- | --- |
| binds | RNA polymerase I subunit A12 (natural protein) MSVVGSLIFCLDCGDLLENPNAVLGSNVECSQCKAIYPKSQFSNLKVVTTTADDAFPSSLRAKKSVVKTSLKKNELKDGATIKEKCPQCGNEEMNYHTLQLRSADEGATVFYTCTSCGYKFRTNN |
| binds | A49/A34.5 heterodimer of RNA polymerase I (complex) chain 1: MSVKRSVSEIEIESVQDQPSVAVGSFFKGFRAPSDTTFDLYKKKKSEKDEFVLHGENERLEYEGYTDSSSQASNQYVVGLFNPEKKSIQLYKAPVLVSKVVSKSSKNLRGPKIKSKSDTRPSALRNALGEAFGTKKAKKAIADLERNRIDSDKLTDSAIDIVDSVRTASKDLPTRAQLDEITSNDRPTPLANIDATDVEQIYPIESIIPKKELQFIRVSSILKEADKEKKLELFPYQNNSKYVAKKLDSLTQPSQMTKLQLLYYLSLLLGVYENRRVNNKTKLLERLNSPPEILVDGILSRFTVIKPGQFGRSKDRSYFIDPQNEDKILCYILAIIMHLDNFIVEITPLAHELNLKPSKVVSLFRVLGAIVKGATVAQAEAFGIPKSTAASYKIATMKVPFKLPEMTRRGRGPRR chain 2: MSKLSKDYVSDSDSDDEVISNEFSIPDGFKKCKHLKNFPLNGDNKKKAKQQQVWLIKFPSNVDISKLKSLPVDFESSTTMTIDKHDYKIMDDTDIESSLTQDNLSNMTLLVPSESKESLKIASTAKDNAPLQFDKVFSVSETAKIPAIDYSKVRVPRKDVPKVEGLKLEHFATGYDAEDFHVAEEVKENKKEPKKRSHHDDEEESSEKKKKKKEKREKREKKDKKDKKKKHRD |
